According to patent US20140363428A1 (Chugai, published 2014):
Changes are numbered by the printed parent chain. In names and notes the source's numbering stands.

What was measured:
[1] = biological target: T1, biotinylated GPC3 peptide (chemically-synthetized peptide having a human glypican 3 protein-derived sequence, … (human, C-terminal Lys is biotinylated)); assay: SPR (Biacore T200), capture of human IgE on Sensor chip SA carrying the biotinylated GPC3 peptide, 37 degrees C
T1 construct: Synthetic peptide immobilized on Sensor chip SA through biotin-streptavidin
T1 peptide: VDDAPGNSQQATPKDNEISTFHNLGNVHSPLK

human IgE [2] = biological target: T2, human IgE (human); assay: SPR Biacore T200, 37 C; pH 5.8, 1.2 mM Ca
T2 construct: Recombinant antigen; variable region derived from an anti-human glypican3 antibody; also called hIgE
Description: (§1) Human IgE was immobilized onto the chip by injecting it at an appropriate concentration so as to be trapped by the biotinylated GPC3 peptide. […] Then, 10 mmol/L glycine-HCl (pH 1.5) was injected to regenerate the sensor chip. The interaction was always measured at 37 degrees C. The measurement result was analyzed by curve fitting using Biacore T200 Evaluation Software (GE Healthcare) to calculate the association rate constant ka (1/Ms) and dissociation rate constant kd (1/s). The dissociation constant KD (M) was calculated from the above-described constants.

human IgE [3] = biological target: T2, human IgE; assay: SPR Biacore T200, 37 C; pH 5.8, 3 microM Ca
Description: as §1

human IgE [4] = biological target: T2, human IgE; assay: SPR Biacore T200, 37 C; ratio of KD, pH dependency
Description: as §1

human IgE [5] = biological target: T2, human IgE; assay: SPR Biacore T200, 37 C; ratio of KD, pH/Ca dependency
Description: as §1

human IgE [6] = biological target: T2, human IgE; assay: SPR Biacore T200, 37 C, hIgE captured via biotinylated GPC3 peptide, Ab analyte; pH 7.4, 1.2 mM Ca
Description: as §1

[7] = biological target: T3, soluble human FcRn (heterodimer of FcRn alpha chain and beta2-microglobulin) (human, UniProt P55899 24-297; P61769 21-119); assay: SPR (Biacore), hFcRn, measured in multiplicates; n=12
T3 construct: Signal regions are part of the expressed constructs; also called hFcRn

soluble human FcRn [8] = biological target: T4, soluble human FcRn (human, UniProt P55899 24-297; P61769 21-119); assay: SPR (Biacore), pH 6.0
T4 construct: Heterodimer of alpha chain and beta2-microglobulin; also called hFcRn

soluble human FcRn [9] = biological target: T4, soluble human FcRn; assay: SPR (Biacore), pH 7.0
soluble human FcRn [10] = biological target: T4, soluble human FcRn; assay: SPR (Biacore), pH 6.0; Table 26 series (4-5), a different experiment from Table 25; pH 6.0
[11] = biological target: T3, soluble human FcRn (heterodimer of FcRn …); assay: SPR (Biacore), hFcRn, measured in multiplicates; n=7
soluble human FcRn [12] = biological target: T4, soluble human FcRn; assay: SPR (Biacore), pH 6.0; pH 6.0 (acidic pH, not neutral pH)
soluble human FcRn [13] = biological target: T4, soluble human FcRn; assay: SPR (Biacore), pH 7.0; remark: listed apart in the source
soluble human FcRn [14] = biological target: T4, soluble human FcRn; assay: SPR (Biacore), pH 7.0; remark: listed apart in the source

T3 sequence (P55899 24-297 limits assumed, chain 1 of 2): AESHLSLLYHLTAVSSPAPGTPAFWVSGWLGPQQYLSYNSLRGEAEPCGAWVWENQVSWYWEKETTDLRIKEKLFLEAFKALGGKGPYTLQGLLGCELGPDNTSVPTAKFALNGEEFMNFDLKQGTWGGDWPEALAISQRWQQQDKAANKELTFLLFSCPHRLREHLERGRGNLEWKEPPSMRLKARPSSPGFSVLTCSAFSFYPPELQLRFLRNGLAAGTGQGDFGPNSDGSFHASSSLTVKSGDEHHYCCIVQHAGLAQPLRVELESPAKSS
T3 sequence (P61769 21-119 limits assumed, chain 2 of 2): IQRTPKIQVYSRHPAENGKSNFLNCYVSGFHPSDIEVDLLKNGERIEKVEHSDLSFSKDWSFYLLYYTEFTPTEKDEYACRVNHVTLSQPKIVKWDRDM
T4 sequence (P55899 24-297 limits assumed, chain 1 of 2): as the sequence (P55899 24-297 limits assumed, chain 1 of 2) above
T4 sequence (P61769 21-119 limits assumed, chain 2 of 2): as the sequence (P61769 21-119 limits assumed, chain 2 of 2) above

B1: human IgE (recombinant; variable region derived from an anti-human glypican3 antibody) (other)
heavy: QVQLVQSGAEVKKPGASVKVSCKASGYTFTDYEMHWVRQAPGQGLEWMGALDPKTGDTAYSQKFKGRVTLTADKSTSTAYMELSSLTSEDTAVYYCTRFYSYTYWGQGTLVTVSSASTQSPSVFPLTRCCKNIPSNATSVTLGCLATGYFPEPVMVTWDTGSLNGTTMTLPATTLTLSGHYATISLLTVSGAWAKQMFTCRVAHTPSSTDWVDNKTFSVCSRDFTPPTVKILQSSCDGGGHFPPTIQLLCLVSGYTPGTINITWLEDGQVMDVDLSTASTTQEGELASTQSELTLSQKHWLSDRTYTCQVTYQGHTFEDSTKKCADSNPRGVSAYLSRPSPFDLFIRKSPTITCLVVDLAPSKGTVNLTWSRASGKPVNHSTRKEEKQRNGTLTVTSTLPVGTRDWIEGETYQCRVTHPHLPRALMRSTTKTSGPRAAPEVYAFATPEWPGSRDKRTLACLIQNFMPEDISVQWLHNEVQLPDARHSTTQPRKTKGSGFFVFSRLEVTRAEWEQKDEFICRAVHEAASPSQTVQRAVSVNPGK
light: DVVMTQSPLSLPVTPGEPASISCRSSQSLVHSNRNTYLHWYLQKPGQSPQLLIYKVSNRFSGVPDRFSGSGSGTDFTLKISRVEAEDVGVYYCSQNTHVPPTFGQGTKLEIKRTVAAPSVFIFPPSDEQLKSGTASVVCLLNNFYPREAKVQWKVDNALQSGNSQESVTEQDSKDSTYSLSSTLTLSKADYEKHKVYACEVTHQGLSSPVTKSFNRGEC
notes: Used as antigen; also called hIgE
binding result [1]: binds

B2: clone 278 (antibody, human IgG1, kappa, V domains shown)
VH: QSLEESGGRLVTPGTPLTLTCTASGFSLSSYHMSWVRQAPGKGLEWIGVINSAGNTYYASWAKGRFTVSKTSTTVDLNLTSLTTEDTATYFCARYVFSSGSHDIWGPGTLVTVSS
VL: AYDMTQTPASVEVAVGGTVTIKCQASQSIGSWLAWYQQKPGQPPKELIYGTSTLESGVPSRFIGSGSGTEFTLTISGVECADAATYYCQQGYSEDNIDNAFGGGTEVVVKR
notes: human IgG1 heavy chain constant region and human light chain constant region
Kd (human IgE [2]): 2000 nM
koff (human IgE [2]): 0.23 s⁻¹
kon (human IgE [2]): 120000 M⁻¹ s⁻¹
Kd (human IgE [3]): 3.9 µM
koff (human IgE [3]): 0.24 s⁻¹
kon (human IgE [3]): 62000 M⁻¹ s⁻¹
KD (pH 5.8, 1.2 mM Ca)/KD (pH 7.4, 1.2 mM Ca) (human IgE [4]): 842
KD (pH 5.8, 3 microM Ca)/KD (pH 7.4, 1.2 mM Ca) (human IgE [5]): 1640
Kd (human IgE [6]): 2.4 nM
koff (human IgE [6]): 0.0036 s⁻¹
kon (human IgE [6]): 1.5e+06 M⁻¹ s⁻¹

B3: Fv-4-F11 (antibody, human IgG1, kappa)
heavy: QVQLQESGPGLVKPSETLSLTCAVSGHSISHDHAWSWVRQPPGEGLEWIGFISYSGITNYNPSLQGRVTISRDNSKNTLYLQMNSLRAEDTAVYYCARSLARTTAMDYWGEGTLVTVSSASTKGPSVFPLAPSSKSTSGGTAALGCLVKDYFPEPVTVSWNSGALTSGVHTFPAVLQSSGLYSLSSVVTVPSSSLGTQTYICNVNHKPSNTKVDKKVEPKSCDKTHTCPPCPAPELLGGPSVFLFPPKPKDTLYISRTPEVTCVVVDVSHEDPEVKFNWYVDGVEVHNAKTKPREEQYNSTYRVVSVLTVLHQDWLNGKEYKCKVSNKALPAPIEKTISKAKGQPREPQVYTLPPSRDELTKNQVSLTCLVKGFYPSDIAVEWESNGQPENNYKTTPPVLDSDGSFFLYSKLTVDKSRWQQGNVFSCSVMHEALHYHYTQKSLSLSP
light: DIQMTQSPSSLSASVGDSVTITCQASTDISSHLNWYQQKPGKAPELLIYYGSHLLSGVPSRFSGSGSGTDFTFTISSLEAEDAATYYCGQGNRLPYTFGQGTKVEIERTVAAPSVFIFPPSDEQLKSGTASVVCLLNNFYPREAKVQWKVDNALQSGNSQESVTEQDSKDSTYSLSSTLTLSKADYEKHKVYACEVTHQGLSSPVTKSFNRGEC
notes: VH3-F11 (M252Y/N434Y) and VL3-CK
Kd [7]: 310 nM

B4: Fv-4-F1166 (antibody)
heavy: QVQLQESGPGLVKPSETLSLTCAVSGHSISHDHAWSWVRQPPGEGLEWIGFISYSGITNYNPSLQGRVTISRDNSKNTLYLQMNSLRAEDTAVYYCARSLARTTAMDYWGEGTLVTVSSASTKGPSVFPLAPSSKSTSGGTAALGCLVKDYFPEPVTVSWNSGALTSGVHTFPAVLQSSGLYSLSSVVTVPSSSLGTQTYICNVNHKPSNTKVDKKVEPKSCDKTHTCPPCPAPELLGGPSVFLFPPKPKDTLYITREPEVTCVVVDVSHEDPEVKFNWYVDGVEVHNAKTKPREEQYNSTYRVVSVLTVLHQDWLNGKEYKCKVSNKALPAPIEKTISKAKGQPREPQVYTLPPSRDELTKNQVSLTCLVKGFYPSDIAVEWESNGQPENNYKTTPPVLDSDGSFFLYSKLTVDKSRWQQGNVFSCSVMHEALHNHYTRKELSLSP
light: B3 light
Kd (soluble human FcRn [8]): 210 nM

B5: Fv-4-F1323 (antibody)
heavy: B4 heavy with L237R, S241K, E258T, H435D, N436Y, Y438V, R440K
light: B3 light
Kd (soluble human FcRn [9]): 150 nM

B6: Fv-4-F1173 (antibody, human IgG1, kappa)
heavy: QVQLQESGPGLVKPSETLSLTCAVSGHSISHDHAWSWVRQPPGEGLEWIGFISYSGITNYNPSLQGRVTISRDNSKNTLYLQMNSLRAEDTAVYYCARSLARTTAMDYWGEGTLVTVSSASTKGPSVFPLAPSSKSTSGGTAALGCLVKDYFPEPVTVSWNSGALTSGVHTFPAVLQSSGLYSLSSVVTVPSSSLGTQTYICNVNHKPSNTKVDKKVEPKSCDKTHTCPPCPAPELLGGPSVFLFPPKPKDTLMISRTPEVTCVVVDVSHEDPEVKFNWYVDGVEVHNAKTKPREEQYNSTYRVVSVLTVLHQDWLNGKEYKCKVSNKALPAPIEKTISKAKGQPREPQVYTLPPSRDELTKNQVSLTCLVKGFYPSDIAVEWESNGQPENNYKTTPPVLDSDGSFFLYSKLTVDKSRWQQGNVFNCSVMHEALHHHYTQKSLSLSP
light: B3 light
Kd (soluble human FcRn [8]): 530 nM

B7: Fv-4-F1171 (antibody, human IgG1, kappa)
heavy: B4 heavy with Y254M, T256S, E258T, S426N, M430L, N436S, R440Q, E442S
light: B3 light
Kd (soluble human FcRn [8]): 240 nM

B8: Fv-4-LS (antibody, human IgG1, kappa)
heavy: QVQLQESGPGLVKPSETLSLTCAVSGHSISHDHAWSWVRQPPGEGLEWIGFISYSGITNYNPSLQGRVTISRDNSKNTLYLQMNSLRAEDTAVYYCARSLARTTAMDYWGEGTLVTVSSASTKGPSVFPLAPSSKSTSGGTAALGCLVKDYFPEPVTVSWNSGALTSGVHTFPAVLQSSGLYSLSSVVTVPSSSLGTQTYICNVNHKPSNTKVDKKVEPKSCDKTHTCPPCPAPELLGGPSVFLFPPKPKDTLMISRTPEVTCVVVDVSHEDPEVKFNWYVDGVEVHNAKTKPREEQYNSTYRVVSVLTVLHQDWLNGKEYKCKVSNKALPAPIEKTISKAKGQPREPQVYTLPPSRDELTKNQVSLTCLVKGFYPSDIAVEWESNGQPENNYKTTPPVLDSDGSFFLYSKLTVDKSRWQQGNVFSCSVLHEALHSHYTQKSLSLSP
light: B3 light
notes: also called F22
Kd (soluble human FcRn [8]): 160 nM
Kd (soluble human FcRn [10]): 71 nM

B9: Fv-4-F1172 (antibody)
heavy: B4 heavy with Y254M, T256S, E258T, N436H
light: B3 light
Kd (soluble human FcRn [8]): 400 nM

B10: Fv-4-F652 (antibody, human IgG1, kappa)
heavy: B4 heavy with P240D, T256S, E258T, N436Y, R440Q, E442S
light: B3 light
notes: VH3-F652 (P238D/M252Y/N434Y) and VL3-CK
Kd [11]: 240 nM

B11: Fv-4-N434H (antibody, human IgG1, kappa)
heavy: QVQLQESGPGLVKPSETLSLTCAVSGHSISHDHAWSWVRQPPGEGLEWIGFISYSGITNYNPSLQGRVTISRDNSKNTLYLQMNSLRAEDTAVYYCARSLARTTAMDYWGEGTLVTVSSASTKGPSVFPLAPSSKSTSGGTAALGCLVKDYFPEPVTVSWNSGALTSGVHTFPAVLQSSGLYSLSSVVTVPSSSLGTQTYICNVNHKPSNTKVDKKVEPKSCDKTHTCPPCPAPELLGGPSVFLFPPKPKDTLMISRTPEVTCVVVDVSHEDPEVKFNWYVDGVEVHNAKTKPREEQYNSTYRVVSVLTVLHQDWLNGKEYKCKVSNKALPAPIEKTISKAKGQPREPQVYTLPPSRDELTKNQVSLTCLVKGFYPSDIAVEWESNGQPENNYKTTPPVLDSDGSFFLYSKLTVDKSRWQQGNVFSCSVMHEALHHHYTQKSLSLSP
light: B3 light
Kd (soluble human FcRn [8]): 430 nM

B12: Fv-4-F1340 (antibody)
heavy: B4 heavy with L237R, S241K, N436Y, Y438V, R440K
light: B3 light
Kd (soluble human FcRn [9]): 56 nM

B13: Fv-4-F890 (antibody, human IgG1, kappa)
heavy: B4 heavy with T256S, E258T, N436Y, Y438V, R440Q, E442S
light: B3 light
notes: VH3-F890 (M252Y/N434Y/Y436V) and VL3-CK; also called Fv-4-890
Kd [7]: 110 nM

B14: Fv-4-YTE (antibody, human IgG1, kappa)
heavy: B4 heavy with R440Q, E442S
light: B3 light
Kd (soluble human FcRn [12]): 210 nM

B15: Fv-4-F890 (antibody, human IgG1, kappa)
heavy: B4 heavy with T256S, E258T, N436Y, Y438V, R440Q, E442S
light: B3 light
notes: M252Y/N434Y/Y436V (EU)
Kd (soluble human FcRn [13]): 107 nM
Kd (soluble human FcRn [14]): 110 nM

B16: Fv-4-F1167 (antibody, human IgG1, kappa)
heavy: B4 heavy with S426N, R440Q, E442S
light: B3 light
Kd (soluble human FcRn [8]): 250 nM

B17: Fv-4-F1115 (antibody, human IgG1, kappa)
heavy: B4 heavy with T256S, E258T, S426N, N436Y, Y438V, R440Q, E442S
light: B3 light
Kd (soluble human FcRn [14]): 130 nM
